Test results taken from article PMC10371251.

Test system: FLAG-cGAS (Homo sapiens)
Experiment: pull-down (streptavidin, Western blot; ligand transfected into HEK293T 2 h)
Conditions: 5' or 3' position of biotin not stated, forward strand biotinylated, reverse unmodified, HEK293T transfected with 4 ug/mL biotin-ISD45 for 2 h, then streptavidin IP, IP buffer, pH and temperature not in the material (oligo annealing: 5 mM Tris pH 7.)

Question: With biotinylated ISD45 as the substance, how does the binding signal (fold of empty vector) (WT SRC-HA coexpressed) read?
Answer: 0.466

Question: And the binding signal (fold of empty vector) (empty vector, no SRC-HA, non-biotinylated ISD45 background 0.1436)?
Answer: 1
